In test [1] the target is gp41-inter (HIV-1; HIV-1 clade A isolate 92UG037.8). The experiment in a line: fluorescence anisotropy/polarization, FITC-labeled 4E10 Fab, gp41-inter titrated; the concentration read is that of gp41-inter.
The target is the same in test [2]. Briefly: fluorescence anisotropy/polarization; FITC-4E10 Fab, gp41-inter titrated. (In general: Polarisation of emitted light reports the rotation of a fluorescent probe.)
For test [3] the target is unchanged. Briefly: fluorescence anisotropy/polarization, FITC-labeled 2F5 Fab held at 50 nM, gp41-inter titrated; the concentration read is that of gp41-inter.

This note sets out measurements from patent US20250177373A1.

In general, EC50 (read off the curve) refers to the midpoint of the concentration-response curve. The term Kd denotes the concentration at which binding is half-saturated. Read a high Kd as a looser complex. In turn, 4E10 Fab displayed a half-maximal effective concentration (EC50 (read off the curve)) in test [1] of 20 nM. For the same substance, the Kd in test [2] was 23 nM.
Turning to 2F5 Fab, the concentration for a half-maximal effect (EC50 (read off the curve)) in test [3] was 10 nM.
